{"source": "paper PMC11700639", "binders": {"B1": {"name": "MPZ-mCherry, P25189 30-248 (natural protein)", "chain": "IVVYTDREVHGAVGSRVTLHCSFWSSEWVSDDISFTWRYQPEGGRDAISIFHYAKGQPYIDEVGTFKERIQWVGDPRWKDGSIVIHNLDYSDNGTFTCDVKNPPDIVGKTSQVTLYVFEKVPTRYGVVLGAVIGGVLGVVLLLLLLFYVVRYCWLRRQAALQRRLSAMEKGKLHKPGKDASKRGRQTPVLYAMLDHSRSTKAVSEKKAKGLGESRKDKK"}}, "molecular_target": "T1, MPZ-GFP (human), P25189", "T1 chain": "B1 chain", "experiment": "FRET or BRET", "conditions": "remark: other sources report otherwise", "data": [{"binder": "B1", "values": [{"measurement": "FRET efficiency", "result": 5.3, "unit": "%"}]}]}
